Publication PMC10538664 (2023)

Target: prototype SARS-CoV-2 tandem RBD homotrimer (PPP) (SARS-CoV-2, UniProt P0DTC2)
Test: SPR

B1: fragment antigen binding (Fab) of mAb CB6 (Fab, V domains shown)
VH: EVQLVESGGGLVQPGGSLRLSCAASGFTVSSNYMSWVRQAPGKGLEWVSVIYSGGSTFYADSVKGRFTISRDNSMNTLFLQMNSLRAEDTAVYYCARVLPMYGDYLDYWGQGTLVTVSS
VL: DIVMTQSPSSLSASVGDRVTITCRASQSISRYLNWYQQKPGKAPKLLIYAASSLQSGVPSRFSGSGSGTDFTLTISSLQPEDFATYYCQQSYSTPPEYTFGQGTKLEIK
B1 was tested, and the Kd was 24.3 nM.
